From the supplement of paper PMC12764529
± gives the half width of the 95% confidence interval.

Legend:
[1] = folding stability dG unfold (combined trypsin and chymotrypsin); higher = more stable
Method in brief: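 K50 was inferred by Bayesian fitting of sequencing counts obtained after protease digestion of designed mini-proteins. Unfolding free energy was derived by comparison with a sequence-predicted unfolded-state K50 and a shared folded-state K50, for each protease or both combined. The mini-proteins were under 80 residues, had no cysteine, were carried in a PA-tagged cDNA display construct, and were kept only if AlphaFold2 dimer inter-PAE exceeded 15.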

[2] = folding stability dG unfold from trypsin proteolysis; higher = more stable
Procedure: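 Folding stability of de novo designed mini-proteins (<80 aa, no Cys; designed by TrROS, TrMRF, ProteinMPNN and the joint model) was measured by cDNA display proteolysis with trypsin and chymotrypsin. Each protease was used at 11 concentrations in a threefold dilution series plus a no-protease condition. K50 was inferred by Bayesian fitting of sequencing counts, and dG unfold was derived against a sequence-predicted unfolded-state K50 (Tsuboyama et al. method). Sequences shown include variable-length N-terminal GS-type padding (SAGGSAGG...) inside a display construct carrying a PA tag. Rows were kept only if the AF2 dimer inter-PAE was >15, to exclude likely homo-oligomers.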

| Sequence | folding stability dG unfold [1] | folding stability dG unfold [2] |
| --- | --- | --- |
| SAITIMIPPNQTLEEIADELGFPGIKDVKHEPFEPGYYPATFEFPGDPDREIEIMFNPEPDWMMVEVEDSAG [r14_713_TrROS] | 0.0271 ± 0.13 kcal/mol | 0.809 ± 0.054 kcal/mol |
| SAGGSAGGSAGMMEEKLIKEYEDPNGGKKYTIKLVKDPKTGKEKIVKETIEPNKKTTEIKNLSAGGSAGGSA [r18_444_JUSTAS] | -0.365 ± 0.62 kcal/mol | -0.36 ± 0.21 kcal/mol |
| SAGGSNPGDPEQVPKVKIKITYPDNGKEFTIPVEELRNGPIEEAVSEIANEARERYPGHPLRIEPVSAGGSA [r2_392_TrROS] | < -1 kcal/mol | -0.836 ± 0.41 kcal/mol |
| SAGGSAGGSGEEIIKKIAESLIPGHPNLKPDKITYDPKTGKITIKTKNPKAAKLLKELDLIKPSAGGSAGGS [r12_623_TrMRF] | < -1 kcal/mol | -0.446 ± 0.28 kcal/mol |
| SAGGSAGGSAGGKGWPTVEIPMPENGKPTPDSIEEIAEKFNMPNVEVEQSDDWHKIDVDSAGGSAGGSAGGS [r10_642_TrROS] | -0.295 ± 0.32 kcal/mol | 0.92 ± 0.047 kcal/mol |
| SAGGGMTLTQVSSHQSPNGGVPTTLVTETLFYPETGTAVVLTKVRLPETGEVTTVASTVLPIPPPLLSAGGS [r8_384_JUSTAS] | -0.726 ± 0.31 kcal/mol | -0.0612 ± 0.066 kcal/mol |
| SAGGPKEIIKEIAEKYGITEIMPWDDMKNMPPENPNKIHIWPDPEGHYMVMIRAPNGNKKSIEFPIESAGGS [r16_686_TrROS] | < -1 kcal/mol | -1.02 ± 0.3 kcal/mol |
| SAGMVVKVTVITEDEKPIEVYLPVKDPEKYPPEKVEEAAKEIAKKLEEEGIPVKKVSVEPIAPKPGLLSAGG [r19_334_TrMRF] | 0.0993 ± 0.4 kcal/mol | 0.544 ± 0.087 kcal/mol |
| SAGGFRITPEFLEELLKNMPPGDPNKTITVKVEMPMRYEPRKGGNGQPQYRHEYPMTHEFPITIPPKSAGGS [r16_708_TrROS] | -0.349 ± 0.19 kcal/mol | 0.32 ± 0.066 kcal/mol |
| SAGGSAGGSAGITIEFPEEENNFRVENPNDGKKHEIPGTPDEIKEYALDKFPGRPIKIHPSAGGSAGGSAGG [r11_614_TrROS] | -0.511 ± 0.43 kcal/mol | 0.11 ± 0.079 kcal/mol |
| SAGGSAETYPVTVVVPLPPGGRELPVEELEDLVRETLANVPDLPDVKVEVTLLEPEGRALVRVEFPSAGGSA [r15_1029_TrMRF] | -0.594 ± 0.16 kcal/mol | 0.0434 ± 0.12 kcal/mol |
| SAGPGNWFIMIFINIEIKLETVPDPDGKPWLKITISIKFFVMIVRLPPDGKARMEMFPITIKFTFTIPLSAG [r5_428_TrROS] | > 6 kcal/mol | 4.17 ± 0.29 kcal/mol |
| SAGGSAFKELLKEIKEQLQQAPPGEQVEVPIPFPDGYPLRIEINPDENKIEVEYPNGEEEEFDIPPSAGGSA [r15_977_TrROS] | < -1 kcal/mol | 0.133 ± 0.19 kcal/mol |
| SAGGSAGGSAGGMKVEVVDITGPPDLSPDATTTTKHPNGVTSTTTMTDPATRTSTIYTPESAGGSAGGSAGG [r11_362_JUSTAS] | < -1 kcal/mol | -0.899 ± 0.83 kcal/mol |
| SAGGSAGGSAGGKPIYILAEHPSNGKVVLLPVDSPEKAIEFAKALADVPDFKIAHVDAFGSAGGSAGGSAGG [r11_951_TrMRF] | -0.287 ± 0.22 kcal/mol | 0.341 ± 0.052 kcal/mol |
| SMNVKPFSSTISNPAVTVTTPITQPSSGEGTATLTIHRPESVTTTTHPVTDLQALIDSHAAGGVSLTGTSSA [r9_384_JUSTAS] | < -1 kcal/mol | -0.377 ± 0.095 kcal/mol |
| SAGGSAGGSAGGMKVSVSLDILETEVSPDGTVTATYKDESGEIRTITKYVEVKLKPGLASAGGSAGGSAGGS [r10_281_JUSTAS] | -0.237 ± 0.19 kcal/mol | -0.148 ± 0.067 kcal/mol |
| SAGGGEVKKVTYVVVIELPPDPETGEPHPLPLVLEREYPADDPEAVESDIKKALDEIDIPEEAKEALSAGGS [r16_40_TrMRF] | 0.123 ± 0.32 kcal/mol | 0.403 ± 0.083 kcal/mol |
| SMSEELKKEIEAFLKEKGASIDFKTDPSTGKITITVTIPGKGTTTTITLTFPPDNPEEIKEKIKELIEKGSA [r9_42_JUSTAS] | > 6 kcal/mol | 4.88 ± 0.6 kcal/mol |
| SAGGSAMPKPKVEILKVEKTEDGTVKVPVKVEVTFEDGSKETVPATVTFEVEEGKPLGPEALKEAISAGGSA [r15_836_TrMRF] | < -1 kcal/mol | -0.377 ± 0.11 kcal/mol |
| SAGGSAGGSAGGPIKVKADKVTVEKRRNPENGKEYVELTVPGPGGTRTGRFPAEDLDKISAGGSAGGSAGGS [r10_447_TrROS] | < -1 kcal/mol | -0.654 ± 0.21 kcal/mol |
| SAGGSAGGSKITITIAPGMSEEEAKKLAEELAKEFNIEIEVKIEPLKPVEKKFYVDKETNEIKSAGGSAGGS [r12_159_TrROS_Hall] | < -1 kcal/mol | -0.357 ± 0.19 kcal/mol |
| SAGMDPNEKREVVVELEFEVPDPSNPEGGSVPIRVTLKATGKGTEEEAEELKKKAEEEAREKVEKGELLSAG [r5_532_JUSTAS] | -0.287 ± 0.56 kcal/mol | 0.687 ± 0.15 kcal/mol |
| SAGGSAGGSAGIPNLIAYEVSKEGKPVKIIVKSPNGEEYEITVSPNESIPENIEILKVEVGSAGGSAGGSAG [r3_421_TrMRF] | -0.0441 ± 0.15 kcal/mol | 0.685 ± 0.034 kcal/mol |

| Sequence | folding stability dG unfold [1] | folding stability dG unfold [2] |
| --- | --- | --- |
| SAGGDILLVIPAELFFDEDGKPSEEAVKAIEKAAELAEKLNKEGKPVKIEVKVVPLLPPVSPSDPYVFSAGG [r13_731_TrMRF] | -0.358 ± 0.36 kcal/mol | 0.162 ± 0.055 kcal/mol |
| SAGMYIEGSLSSPEEAPVVAVPFPGPEKLLLAPLAVGLEEIREALEEEGFEPVEIRVAETEPGVPLDLSAGG [r19_386_TrMRF] | -0.694 ± 0.24 kcal/mol | 0.211 ± 0.024 kcal/mol |
| SAGGSAGGNVKIEVEPGPNGNYLIKIRMPNGTKVEHQFDSPEDAEERAKDFAEEFPPNAQVEIWSAGGSAGG [r6_464_TrROS] | < -1 kcal/mol | -0.00876 ± 0.14 kcal/mol |
| EMTVTVKIEIEKTPDSIKIKITVEVNGKKIEEVEITYDKKTKKIYIKVKVKSKEDLDELKKLLEKLGFKVES [r1_455_TrROS_Hall] | > 6 kcal/mol | 3.81 ± 0.31 kcal/mol |
| SAGGSTLDELIDAIKKAAKKGKEPVEIEFPNPNGGMIKINPDGSIETFPPNGEPQRFKIPLDDLKISAGGSA [r2_97_TrROS] | -0.781 ± 0.25 kcal/mol | -0.568 ± 0.11 kcal/mol |
| SAGGSAGGSAGPITITDIPSEEEAAALIAARPGVEVERKPVTLSEEERWEVTLTLPGEAASAGGSAGGSAGG [r17_542_JUSTAS] | -0.722 ± 0.18 kcal/mol | 0.157 ± 0.058 kcal/mol |
| SAGGSAGGSAEVEIKVRPDDPIPPNLPIVLPDGKERDARVEAVLDPEDGTPVFKVYFDPRSDSAGGSAGGSA [r18_476_TrMRF] | 0.0528 ± 0.29 kcal/mol | 0.771 ± 0.048 kcal/mol |
| SAGGSAGGSYSKNGQPPPTREIEIIILVEDPEEAENKADELSEMLGMPIKVEIIPEEDAKKMISAGGSAGGS [r12_766_TrROS] | 0.27 ± 0.86 kcal/mol | 0.0437 ± 0.24 kcal/mol |
| SAGGSAGGSAGVPVPGTDVPAEPITVLKKNPDGTVTKLKDESLTLEEIKAKLPGEVEFVGSAGGSAGGSAGG [r17_125_JUSTAS] | < -1 kcal/mol | 0.0884 ± 0.14 kcal/mol |
| SAGGTTTESVSEDSTDNGEYVTTTTTTDPVGPSTVVTTTTTTTPADGTTTTTTTTYTVPPGAPASAVVSAGG [r13_3_JUSTAS] | -0.00338 ± 0.16 kcal/mol | 0.354 ± 0.052 kcal/mol |
| SAGMKKEKPKETVTITLKNGKKIEIVKTDDSIKIFITDKNGKKRELTVKGLSLEEILKKLEELGFEVEPSAG [r5_613_TrROS_Hall] | 0.353 ± 0.2 kcal/mol | 0.776 ± 0.082 kcal/mol |
| SAGWKLKIESPNGAEIEINPESGMIDVKNPDNGQPWSVMIPPENPGEINIFNPGDGEPLQPFKIDEIEPSAG [r5_761_TrROS] | 0.111 ± 0.41 kcal/mol | 0.337 ± 0.23 kcal/mol |
| SAGGSAGGSKFPKKFTVEVYTLTKKLKTPEGKLKTETTVLIEKTEEIKPLPEIDEERVEKVLLSAGGSAGGS [r12_1060_JUSTAS] | < -1 kcal/mol | 0.166 ± 0.71 kcal/mol |
| SAGGSAGGSAGKIKAYAEKDVPAEIVAKAIEEEIREAFPDNPEEIKGIEVEPDGFLSETISAGGSAGGSAGG [r17_43_TrMRF] | < -1 kcal/mol | -0.636 ± 0.15 kcal/mol |
| SAGGSAGGSAGERIPIKVSIHDPDGRMVPMEIKEIDPDDGTIEVKLPGLPPGIRSIHIMLSAGGSAGGSAGG [r17_260_TrROS] | < -1 kcal/mol | -1.01 ± 0.31 kcal/mol |
| SAGGSAGGSMTVKKIEIKPPPGGTDLATITTEKVDPSTGKPSLSTSTVTVPKNNPEAIEKFLSSAGGSAGGS [r12_691_JUSTAS] | < -1 kcal/mol | -0.257 ± 0.18 kcal/mol |
| SAGGSAKPVEVELPDGIEIYYPKDRMYIEINLPNGRPIKIPFEFDDPNDPERALDKARDLVKKLPWSAGGSA [r15_748_TrROS] | < -1 kcal/mol | -0.577 ± 0.41 kcal/mol |
| SAGGSAGGSAGGDVEVKEFTTTDPETGEEIIRVTETIPGNEKIVTTYTKDGKPISTKKILSAGGSAGGSAGG [r7_454_JUSTAS] | -0.528 ± 0.24 kcal/mol | -0.0907 ± 0.13 kcal/mol |
| SAGGSAGGSAGGRITINPENGMVQIKGPNGNQHTFPMDDASELQKEFGLPNIDIEVFPPNSAGGSAGGSAGG [r7_235_TrROS] | -0.145 ± 0.22 kcal/mol | 0.292 ± 0.15 kcal/mol |
| SAGGSAGGSAGMILTEEVTVAVPTLSTADGTRHTTTVPELVVVELKLPPVPPEAVEKLLASAGGSAGGSAGG [r11_318_JUSTAS] | -0.887 ± 0.16 kcal/mol | -0.0441 ± 0.019 kcal/mol |
| SAGGSAMKVATLKVGGVDHTVEITPLPDGSYPVTTTAEEGGETTTTVVPKSEVKKLEDLPPEYRLLSAGGSA [r15_629_JUSTAS] | < -1 kcal/mol | -0.414 ± 0.49 kcal/mol |
| SAGGSAGGSALVRIEFPNGREIEIPNNMPYEQAKDVAVELAEEHGKNGRPFKVKIEEIKPPGSAGGSAGGSA [r18_213_TrROS] | -0.511 ± 0.56 kcal/mol | 0.439 ± 0.096 kcal/mol |
| SAGGSAIRIEPDEDGYIKIEKPSPPGEPASELIEELKDFFPNWEVETHPHPNGRAEIIFRIPPDQFSAGGSA [r15_1047_TrROS] | -0.132 ± 0.15 kcal/mol | 0.244 ± 0.077 kcal/mol |
